Consider 1 substance from US20160166675A1.

“And” between values parts separate entries of the source, which are not always exact repeats. Equal values may be shown once.

For the assay, the target named is purified EV71 virus-like particles (purified antigen solution of Example 5) (EV71 (enterovirus 71), C4a subtype) (UniProt B9VUU3). Nature of the assay: indirect ELISA, VLP coated 1 ug/ml, control serum. For orientation: In an ELISA, binding on a coated surface is turned into a signal by an enzyme label.

As for Negative serum, the OD450nm is 0.049 OD and 0.051 OD.
